Earlier results on four substances are cited in paper PMC3433420.

Like-named read-outs stand apart in the source and are kept apart here.

Among the targets are SH2B3 (Homo sapiens) (UniProt Q9UQQ2); PLCG1-NC (Homo sapiens) (UniProt P19174); PTPN6-C (Homo sapiens) (UniProt P29350); SH2D3C (Homo sapiens) (UniProt Q8N5H7); RASA1-C (Homo sapiens) (UniProt P20936); SOCS1 (Homo sapiens) (UniProt O15524); VAV2 (Homo sapiens) (UniProt P52735); PLCG1-N (Homo sapiens) (UniProt P19174); NCK1 (Homo sapiens) (UniProt P16333); SYK-N (Homo sapiens) (UniProt P43405); DAPP1 (Homo sapiens) (UniProt Q9UN19); ITK (Homo sapiens) (UniProt Q08881); SLA2 (Homo sapiens) (UniProt Q9H6Q3); SH2D3A (Homo sapiens) (UniProt Q9BRG2); SH2B2 (Homo sapiens) (UniProt O14492); PIK3R3-N (Homo sapiens) (UniProt Q92569); PIK3R2-N (Homo sapiens) (UniProt O00459); SYK-NC (Homo sapiens) (UniProt P43405); LYN (Homo sapiens) (UniProt P07948); ABL2 (Homo sapiens) (UniProt P42684); SLA (Homo sapiens) (UniProt Q13239); RASA1-N (Homo sapiens) (UniProt P20936); PLCG1-C (Homo sapiens) (UniProt P19174); SHC2-PTB (Homo sapiens) (UniProt P98077).

Holding throughout (conditions): cited from earlier work
For data set [1], the target named is VAV1 (Homo sapiens) (UniProt P15498).
The target of data set [2] is PIK3R1-C (Homo sapiens) (UniProt P27986).
In data set [3] the target is PIK3R2-NC (Homo sapiens) (UniProt O00459).
For data set [4], the target named is PIK3R1-C (Homo sapiens) (UniProt P27986). The source holds these as a separate data set.
Data set [5] deals with VAV1 (Homo sapiens) (UniProt P15498). The source holds these as a separate data set.
For data set [6], the target named is PIK3R2-NC (Homo sapiens) (UniProt O00459). The source holds these as a separate data set.

PIK3R1-C (Homo sapiens), sequence (P27986 328-723): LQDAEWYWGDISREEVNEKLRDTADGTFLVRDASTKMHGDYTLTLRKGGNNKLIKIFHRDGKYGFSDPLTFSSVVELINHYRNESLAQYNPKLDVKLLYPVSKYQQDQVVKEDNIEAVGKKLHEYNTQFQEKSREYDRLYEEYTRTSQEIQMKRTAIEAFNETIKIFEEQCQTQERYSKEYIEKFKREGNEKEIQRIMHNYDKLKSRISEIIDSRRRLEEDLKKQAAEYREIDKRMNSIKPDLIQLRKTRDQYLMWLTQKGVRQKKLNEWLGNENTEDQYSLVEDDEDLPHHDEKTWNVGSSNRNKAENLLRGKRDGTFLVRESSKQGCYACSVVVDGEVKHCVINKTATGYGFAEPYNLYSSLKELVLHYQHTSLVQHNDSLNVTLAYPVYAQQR
PIK3R2-NC (Homo sapiens), sequence (O00459 325-721): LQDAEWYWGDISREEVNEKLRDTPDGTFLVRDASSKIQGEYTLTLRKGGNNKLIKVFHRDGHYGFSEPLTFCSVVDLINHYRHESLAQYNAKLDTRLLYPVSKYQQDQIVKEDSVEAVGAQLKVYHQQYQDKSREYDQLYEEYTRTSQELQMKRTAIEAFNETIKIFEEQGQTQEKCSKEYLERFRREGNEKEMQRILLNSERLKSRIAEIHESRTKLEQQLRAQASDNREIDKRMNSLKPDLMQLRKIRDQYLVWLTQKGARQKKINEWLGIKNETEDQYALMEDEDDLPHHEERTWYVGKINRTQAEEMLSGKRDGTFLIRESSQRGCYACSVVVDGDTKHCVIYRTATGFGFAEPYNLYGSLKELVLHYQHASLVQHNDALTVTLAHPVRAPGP
VAV1 (Homo sapiens), sequence (P15498 666-770): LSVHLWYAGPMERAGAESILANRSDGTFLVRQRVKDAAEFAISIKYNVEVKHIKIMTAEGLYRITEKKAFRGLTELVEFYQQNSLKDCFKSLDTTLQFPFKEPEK
SH2D3C (Homo sapiens), sequence (Q8N5H7 215-324): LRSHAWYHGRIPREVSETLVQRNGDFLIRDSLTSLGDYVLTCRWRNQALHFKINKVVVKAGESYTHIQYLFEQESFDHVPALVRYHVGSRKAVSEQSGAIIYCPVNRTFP
VAV2 (Homo sapiens), sequence (P52735 668-772): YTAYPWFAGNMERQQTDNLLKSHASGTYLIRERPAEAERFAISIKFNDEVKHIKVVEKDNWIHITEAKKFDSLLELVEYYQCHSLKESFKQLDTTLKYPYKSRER
PTPN6-C (Homo sapiens), sequence (P29350 1-218): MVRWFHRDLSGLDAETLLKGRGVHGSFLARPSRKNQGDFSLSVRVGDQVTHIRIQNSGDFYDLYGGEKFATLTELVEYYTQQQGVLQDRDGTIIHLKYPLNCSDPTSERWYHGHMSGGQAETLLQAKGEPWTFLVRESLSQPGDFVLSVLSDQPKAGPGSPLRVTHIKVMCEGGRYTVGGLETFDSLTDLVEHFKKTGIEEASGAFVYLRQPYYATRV
SLA2 (Homo sapiens), sequence (Q9H6Q3 89-196): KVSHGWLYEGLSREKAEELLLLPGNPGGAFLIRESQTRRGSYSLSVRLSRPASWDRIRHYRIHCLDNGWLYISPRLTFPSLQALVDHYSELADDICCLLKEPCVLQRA
SLA (Homo sapiens), sequence (Q13239 79-180): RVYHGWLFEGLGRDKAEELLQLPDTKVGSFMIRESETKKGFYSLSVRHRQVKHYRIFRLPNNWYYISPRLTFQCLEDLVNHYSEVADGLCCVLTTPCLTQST
RASA1-N (Homo sapiens), sequence (P20936 176-446): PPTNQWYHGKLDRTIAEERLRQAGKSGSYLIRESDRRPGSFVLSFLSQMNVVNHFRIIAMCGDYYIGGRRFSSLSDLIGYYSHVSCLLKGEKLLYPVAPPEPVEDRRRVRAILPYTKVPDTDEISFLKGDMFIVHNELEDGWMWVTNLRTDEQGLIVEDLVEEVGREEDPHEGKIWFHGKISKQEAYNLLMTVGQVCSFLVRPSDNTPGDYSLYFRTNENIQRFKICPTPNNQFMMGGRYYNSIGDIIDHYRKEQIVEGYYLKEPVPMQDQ
RASA1-C (Homo sapiens), sequence (P20936 176-446): as above
SH2B3 (Homo sapiens), sequence (Q9UQQ2 359-467): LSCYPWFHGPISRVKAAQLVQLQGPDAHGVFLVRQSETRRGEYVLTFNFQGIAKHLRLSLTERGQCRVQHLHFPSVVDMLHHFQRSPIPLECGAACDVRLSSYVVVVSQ
PIK3R2-N (Homo sapiens), sequence (O00459 325-721): as the sequence (O00459 325-721) above
SHC2-PTB (Homo sapiens), sequence (P98077 482-582): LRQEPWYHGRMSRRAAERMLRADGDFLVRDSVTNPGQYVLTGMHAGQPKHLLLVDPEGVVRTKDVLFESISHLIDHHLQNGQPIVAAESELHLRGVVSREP
SOCS1 (Homo sapiens), sequence (O15524 74-179): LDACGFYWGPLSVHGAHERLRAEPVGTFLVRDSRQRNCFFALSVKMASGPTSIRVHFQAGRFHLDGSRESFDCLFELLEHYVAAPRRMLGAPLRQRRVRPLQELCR
SH2B2 (Homo sapiens), sequence (O14492 412-520): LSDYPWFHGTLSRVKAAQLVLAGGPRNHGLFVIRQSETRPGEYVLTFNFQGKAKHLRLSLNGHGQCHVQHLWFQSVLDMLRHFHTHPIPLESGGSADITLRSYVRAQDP
ITK (Homo sapiens), sequence (Q08881 234-343): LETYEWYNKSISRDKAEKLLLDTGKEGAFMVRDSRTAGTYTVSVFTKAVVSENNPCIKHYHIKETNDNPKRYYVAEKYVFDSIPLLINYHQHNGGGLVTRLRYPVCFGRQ
ABL2 (Homo sapiens), sequence (P42684 168-268): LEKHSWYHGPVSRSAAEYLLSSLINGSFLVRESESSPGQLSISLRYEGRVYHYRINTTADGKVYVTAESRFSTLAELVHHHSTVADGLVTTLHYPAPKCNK
LYN (Homo sapiens), sequence (P07948 124-231): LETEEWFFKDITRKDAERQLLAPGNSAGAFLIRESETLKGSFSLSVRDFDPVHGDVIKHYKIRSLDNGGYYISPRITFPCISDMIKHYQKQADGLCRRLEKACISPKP
DAPP1 (Homo sapiens), sequence (Q9UN19 30-134): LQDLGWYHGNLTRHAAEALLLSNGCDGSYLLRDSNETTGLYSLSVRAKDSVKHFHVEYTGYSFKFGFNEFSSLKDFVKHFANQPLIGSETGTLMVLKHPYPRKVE
PLCG1-NC (Homo sapiens), sequence (P19174 545-761): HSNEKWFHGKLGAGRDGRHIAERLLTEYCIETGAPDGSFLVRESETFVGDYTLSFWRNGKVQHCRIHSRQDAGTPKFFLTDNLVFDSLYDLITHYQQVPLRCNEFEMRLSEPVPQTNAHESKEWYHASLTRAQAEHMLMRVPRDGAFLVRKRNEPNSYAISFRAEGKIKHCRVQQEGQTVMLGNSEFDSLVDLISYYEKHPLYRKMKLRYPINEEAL
PLCG1-N (Homo sapiens), sequence (P19174 545-761): as above
PLCG1-C (Homo sapiens), sequence (P19174 545-761): as above
SH2D3A (Homo sapiens), sequence (Q9BRG2 10-119): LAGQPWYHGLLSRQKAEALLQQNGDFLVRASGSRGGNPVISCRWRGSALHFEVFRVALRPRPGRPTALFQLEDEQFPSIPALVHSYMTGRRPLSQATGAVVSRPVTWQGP

Take …pYEEMRAFQ: the values for the apparent Kd (screen) in the data set with VAV1 (Homo sapiens) [1], with SH2B3 (Homo sapiens) and with PLCG1-NC (Homo sapiens) were 0.499 µM, 1.52 µM and 0.499 µM, respectively.
…pYWDQDPPE: the apparent Kd (screen) is 2 µM with PIK3R1-C (Homo sapiens) [2]; 2 µM with PTPN6-C (Homo sapiens); 0.705 µM with SH2D3C (Homo sapiens); 2 µM in the data set with RASA1-C (Homo sapiens); 1.92 µM with SOCS1 (Homo sapiens); 2 µM with VAV2 (Homo sapiens). Moreover, the apparent Kd (screen) with PLCG1-N (Homo sapiens) was 2 µM; in the data set with NCK1 (Homo sapiens), 2 µM; with SYK-N (Homo sapiens), 0.203 µM; in the data set with DAPP1 (Homo sapiens), 2 µM; with ITK (Homo sapiens), 2 µM; in the data set with SLA2 (Homo sapiens), 2 µM. Further, the apparent Kd (screen) with SH2D3A (Homo sapiens) was 1.6 µM.
Take …pYLVPQQGF: the apparent Kd (screen) is 2 µM with SH2B2 (Homo sapiens); 1.93 µM with PIK3R3-N (Homo sapiens); 1.95 µM with PIK3R2-N (Homo sapiens); 2 µM with PIK3R2-NC (Homo sapiens) [3]; 0.372 µM with SYK-NC (Homo sapiens); 2 µM in the data set with LYN (Homo sapiens). Further, the apparent Kd (screen) in the data set with ABL2 (Homo sapiens) is 2 µM.
For …pYLIPQQGFd, the apparent Kd (screen) with PIK3R1-C (Homo sapiens) [4] is 0.873 µM; with SLA (Homo sapiens) it was 2 µM; in the data set with VAV1 (Homo sapiens) [5], 1.05 µM; with RASA1-N (Homo sapiens), 0.769 µM; in the data set with PLCG1-C (Homo sapiens) it was 2 µM; in the data set with PIK3R2-NC (Homo sapiens) [6], 0.352 µM. Also, the apparent Kd (screen) in the data set with SHC2-PTB (Homo sapiens) is 0.664 µM.
